We go through eight molecules from patent US10654939 (BEIJING MABWORKS BIOTECH, dated 2020).

Experiment [1] addresses T1, human CD40 expressed on cells (human, UniProt P25942 21-277). The experiment is described as follows: cell-based or functional assay.
A further experiment deals with T2, mouse CD40-hFc (mouse, UniProt P27512 20-193).
T2 construct: Bought protein; also called muCD40-hFc
The experiment is described as follows: ELISA, muCD40-hFc coated.

Experiment [2] concerns the target T3, mouse CD40 expressed on HEK293A cells (mouse, UniProt P27512 20-289).
T3 construct: also called HEK293A/mouseCD40
Nature of the experiment: FACS, HEK293A/mouseCD40 cells. Background: In flow cytometry, cells or beads pass a laser one at a time.

Experiment [3] has as its target T4, recombinant human CD40 (ECD)-his (human, UniProt P25942 21-193).
T4 construct: Bought protein; also called hCD40(ECD)-his; TNFRSF5
Nature of the experiment: ELISA, hCD40(ECD)-his coated. The procedure:
(§1) ELISA plates were coated with 500 ng/ml human CD40 (ECD)-his (Sino Biological, CN, Cat #: 10774-H08H) at 4° C. overnight. The wells were blocked with 200 μl of blocking buffer (PBS containing 1% BSA, 1% goat serum, and 0.05% Tween 20) for 2 hours at room temperature, and then 100 μl of serially diluted anti-CD40 antibodies (starting from 40000 ng/ml) were added to each well and incubated for 1 hour at RT. Plates were washed for 3 times with PBST (PBS+0.05% Tween 20), added with Goat-anti-mouse IgG-HRP (Simga, US, Cat #: A9309-1 ml) diluted 5000×, and incubated for 1 hour at RT. Plates were developed with freshly prepared Ultra-TMB (BD, US, Cat #: 555214) for 5 minutes at RT. Absorbance was read on a SpectraMax® i3X (Molecular Devies, US) at 450 nm.
A general note: In an ELISA, binding on a coated surface is turned into a signal by an enzyme label.

In experiment [4] the target is T5, recombinant rhesus CD40 (ECD)-hFc (rhesus monkey, UniProt P25942 21-193 (human entry)).
T5 construct: Bought protein; also called rhCD40(ECd)-hFc; monkey CD40 (ECD)-hFc
T5 chain: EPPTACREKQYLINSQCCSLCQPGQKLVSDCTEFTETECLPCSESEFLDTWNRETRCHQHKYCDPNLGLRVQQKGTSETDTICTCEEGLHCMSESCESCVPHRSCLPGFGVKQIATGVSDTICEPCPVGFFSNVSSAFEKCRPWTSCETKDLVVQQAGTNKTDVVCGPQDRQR
Nature of the experiment: ELISA, rhCD40(ECD)-hFc coated. The procedure:
as §1
Species-cross-reactivity of the 20 CD40 mAbs to monkey or mouse CD40 was further assessed by direct ELISA. Briefly, 500 ng/ml monkey CD40 (ECD)-hFc (Sino Biological, CN, Cat #: 90097-C02H) or mouse CD40-hFc (Sino Biological, CN, Cat #: 50324-M03H) was coated on 96-well ELISA plates followed by incubation with 100 μl of serially diluted anti-CD40 antibodies (starting from 40000 ng/ml). Goat anti-mouse IgG conjugated with HRP (Sigma, US, Cat #: A9309-1ml) was used then.

Experiment [5] has as its target T1, human CD40 expressed on cells. The experiment is described as follows: FACS, HEK293A/humanCD40 cells. How it is done: (§2) Example 5 Mouse Anti-CD40 Monoclonal Antibodies Bound to Human and Rhesus CD40 Expressed on HEK293A Cells To further determine whether anti-CD40 antibodies bound to human, monkey or mouse CD40 expressed on HEK293A cells, a cell-based binding assay by FACS was performed using the HEK293A cells stably overexpressing human, monkey or mouse CD40 as generated in Example 1, respectively. Briefly, 10^5 HEK293A cells were seeded into each well of the 96-well plates and serially diluted anti-CD40 antibodies were added to the plates. After incubated at 4° C. for 1 hour, plates were washed 3 times with PBST. Then, an APC coupled Goat Anti-Mouse IgG (BioLegen, US, Cat #: 405308) diluted 500× was added to the plates. After incubation at 4° C. for 1 hour, the plates were washed with PBS for 3 times and then cell fluorescence was monitored using a FACS machine (BD).

The target of experiment [6] is T6, rhesus CD40 expressed on HEK293A cells (rhesus monkey, UniProt P25942 21-277 (human entry)).
T6 construct: also called HEK293A/rhesusCD40
T6 chain: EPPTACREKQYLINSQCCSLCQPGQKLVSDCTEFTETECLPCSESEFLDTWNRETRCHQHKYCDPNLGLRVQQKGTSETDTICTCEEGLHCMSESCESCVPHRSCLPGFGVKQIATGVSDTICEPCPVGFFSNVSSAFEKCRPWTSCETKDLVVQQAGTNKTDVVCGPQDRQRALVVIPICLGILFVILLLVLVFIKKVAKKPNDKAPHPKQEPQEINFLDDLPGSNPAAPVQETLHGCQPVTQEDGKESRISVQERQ
The experiment is described as follows: FACS, HEK293A/rhesusCD40 cells. The procedure:
as §2

T3 sequence (P27512 20-289 limits assumed): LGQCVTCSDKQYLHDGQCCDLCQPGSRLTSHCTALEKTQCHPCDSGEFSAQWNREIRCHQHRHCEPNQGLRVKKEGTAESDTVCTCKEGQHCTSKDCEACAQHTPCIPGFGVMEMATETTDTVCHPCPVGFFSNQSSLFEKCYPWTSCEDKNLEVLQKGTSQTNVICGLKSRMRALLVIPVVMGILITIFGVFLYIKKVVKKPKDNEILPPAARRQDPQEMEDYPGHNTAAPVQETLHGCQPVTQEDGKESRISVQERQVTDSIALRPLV
T2 sequence (P27512 20-193): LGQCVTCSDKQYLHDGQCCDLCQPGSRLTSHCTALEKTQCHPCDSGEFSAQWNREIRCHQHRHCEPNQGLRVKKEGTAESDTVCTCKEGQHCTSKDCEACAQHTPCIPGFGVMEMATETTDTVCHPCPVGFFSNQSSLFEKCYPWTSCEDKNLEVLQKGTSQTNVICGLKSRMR
T1 sequence (P25942 21-277 limits assumed): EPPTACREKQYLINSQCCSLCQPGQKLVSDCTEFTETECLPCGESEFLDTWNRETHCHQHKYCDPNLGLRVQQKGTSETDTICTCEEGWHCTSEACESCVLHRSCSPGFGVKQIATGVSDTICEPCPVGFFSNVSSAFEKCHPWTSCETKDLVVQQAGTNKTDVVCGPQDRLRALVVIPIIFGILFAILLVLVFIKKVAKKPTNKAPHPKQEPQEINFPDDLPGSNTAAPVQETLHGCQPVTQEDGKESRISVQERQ
T4 sequence (P25942 21-193): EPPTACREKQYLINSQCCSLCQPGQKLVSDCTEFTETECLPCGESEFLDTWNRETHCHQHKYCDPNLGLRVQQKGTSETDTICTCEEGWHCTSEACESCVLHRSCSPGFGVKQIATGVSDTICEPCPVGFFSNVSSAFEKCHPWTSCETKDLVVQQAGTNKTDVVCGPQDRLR

B1: 77D9 (mouse monoclonal antibody) (antibody, V domains shown)
VH: QVKLEESGGGLVKPGGSLKLSCAASGFTFRNYAMSWVRQSPGERLEWVAEVSGSGYYTYYPDTVTGRFTISRDNANNTLYLEVSSLRSEDTAMYYCTSRAYWGQGTLVTVSA
VL: IVMTQSPTLSLPVSLGDQASISCRSSQSIVLTNGNTYLEWYLQRPGQSPKLLIYKVSNRFSGVPDRFSGSGSGTDFTLKISRVEAEDLGVYYCFQGSHVPYTFGGGTKLEIK
Turning to B1, the “HEK Blue EC50” value in experiment [1] is 0.0223 µg/mL. The binding result (with mouse CD40-hFc; in experiment [2]) was “no binding” each time. For the same molecule, the half-maximal effective concentration (EC50) in experiment [3] was found to be 0.0214 µg/mL; in experiment [4] it was 0.0206 µg/mL; in experiment [5], 0.033 µg/mL; in experiment [6] it was 0.117 µg/mL.

B2: 29A10 (mouse monoclonal antibody) (antibody, V domains shown)
VH: QVKLEQSGGGLVKPGGSLKLSCAASGFTFSHYYMYWVRQTPEKRLEWVATISDAGSYTYYSDSVKGRFTISRDNAKNNLYLQMSSLKSDDTAMYFCARTYYRGDGGYWFFDVWGAGTAVTVSS
VL: DIVITQSTSSLAVSVGEKVTMSCESSQSLLYSSNQKNYLAWYQQKPGQSPKLLIYWASTRESGVPDRFTASGSGTDFTLTISSVKAEDLAVYYCQQYYRSPLTFGAGTKLELK
Turning to B2, in experiment [1], the “HEK Blue EC50” value was 0.14 µg/mL. The binding result (with mouse CD40-hFc; in experiment [2]) was “no binding” throughout. The EC50 in experiment [3] is 0.0318 µg/mL; in experiment [4], 0.0302 µg/mL; in experiment [5], 0.203 µg/mL; in experiment [6] it was 0.184 µg/mL.

B3: 50F6 (mouse monoclonal antibody) (antibody, V domains shown)
VH: QVQLEQSGDDLVKPGASVKLSCKASGYTFTTYWINWIKQRPGQGLEWIGRISPGSGSTHYNEMFKGKATLTVDTSSSTAYIQLSSLSSEDSAVYFCTRNDYWGQGTTLTVSS
VL: DIVLTQSPLSLPVSLGDQASISCRSSQSIVNSNGNTYLEWYLQKPGQSPKLLIYKVSNRFSGVPDRFSGSGSGTDFTLKISRVEAEDLGVYYCFQGSHVPLTFGAGTKLELK
For the molecule B3, the “HEK Blue EC50” value in experiment [1] turned out to be 0.0422 µg/mL. Also, the binding result (with mouse CD40-hFc; in experiment [2]) was “no binding” in each case. In addition, the EC50 in experiment [3] came out at 0.0155 µg/mL; in experiment [4], 0.016 µg/mL; in experiment [5], 0.134 µg/mL; in experiment [6], 0.137 µg/mL.

B4: 7B4 (mouse monoclonal antibody) (antibody, V domains shown)
VH: EVQLQESGPGLVKPSQSLSLTCSVTGYSITTNYYWNWIRQFPGNKLEWMGYIKYDGSNNYNPSLKNRISITRDTSKNQFFLKLNSVTTEDTATYYCARLDYWGQGTSVTVSS
VL: DIVLTQSPLSLPVSLGDQASISCRSSQSLENSNGNTFLNWFLQKPGQSPQLLIYKVSNRFSGVLDRFSGTGSGTDFTLTISRVEAEDLGVYFCLQVTHVPFTFGSGTKLEIK
In the case of B4, the “HEK Blue EC50” value in experiment [1] was 0.0261 µg/mL. Moreover, the binding result (with mouse CD40-hFc; in experiment [2]) was “no binding” each time. Moreover, the EC50 in experiment [3] is 0.0153 µg/mL; in experiment [4] it was 0.0152 µg/mL; in experiment [5], 0.0101 µg/mL; in experiment [6], 0.0159 µg/mL.

B5: 13A2 (mouse monoclonal antibody) (antibody, V domains shown)
VH: EVKLEQSGPGLVKPSQSLSLTCSVTGYSITTNYYWNWIRQFPGNKLEWMGYINYDGSNNYNPSLKNRISITRDTSKNQFFLKLNSVTTEDTATYYCARLDYWGQGTSVTVSS
VL: DIVMTQSPLSLPVSLGDQASISCRSSQSLENSNGNTFLNWFLQKPGQSPQLLIYKVSNRFSGVLDRFSGTGSGTDFTLTISRVEAEDLGVYFCLQVTHVPFTFGSGTKLEIK
With B5, the “HEK Blue EC50” value in experiment [1] was 0.0126 µg/mL. Moreover, the binding result (with mouse CD40-hFc; in experiment [2]) was “no binding” each time. The EC50 stood at 0.0207 µg/mL in experiment [3], 0.0141 µg/mL in experiment [4], 0.0485 µg/mL in experiment [5] and 0.0843 µg/mL in experiment [6].

B6: 16A6 (mouse monoclonal antibody) (antibody, V domains shown)
VH: EVQLEQSGPGLVKPSQSLSLTCSVTGYSITTNYHWNWIRQFPGNKLEWMGYIKYDGSNNYNPSLKNRISITRDTSKNQFFLKLNSVTTEDTATYYCARLDYWGQGTSVTVSS
VL: DIVLTQSTLSLSVSLGDQASISCRSSQSLENSNGNTFLNWFLQKPGQSPQLLIYKVSNRFSGVLDRFSGTGSGTDLTLTISRVEAEDLGVYFCLQVTHVPFTFGSGTKLEIK
B6: the “HEK Blue EC50” value in experiment [1] is 0.0114 µg/mL. Moreover, the binding result (with mouse CD40-hFc; in experiment [2]) was “no binding” each time. Moreover, the 50% effective concentration (EC50) was 0.0131 µg/mL in experiment [3], 0.0129 µg/mL in experiment [4], 0.0682 µg/mL in experiment [5] and 0.044 µg/mL in experiment [6].

B7: 142F7 (mouse monoclonal antibody) (antibody, V domains shown)
VH: EVQLEQSGAELVRPGTSVKVSCKASGYAFTNYLIEWGIQRPGQGLEWIGVINPGTGGTNYNEKFKDKATLTTDKSSSTAYMQLSSLTSDDSAVYFCARGGSGFAYWGQGTLVTVSA
VL: DIVLTQTTSSLSASLGDRVTISCRASQDINNYLNWYQQKPDGTVKLLIYYTSRLHSGVPSRFSGSGSGTDYSLTISNLEQEDIATYFCQQGNTLPWTFGGGTKLEIK
For B7, the “HEK Blue EC50” value in experiment [1] was 0.0648 µg/mL. The binding result (with mouse CD40-hFc; in experiment [2]) was “no binding” each time. For the same molecule, the concentration for a half-maximal effect (EC50) is 0.0171 µg/mL in experiment [3], 0.0201 µg/mL in experiment [4], 0.0155 µg/mL in experiment [5] and 0.0807 µg/mL in experiment [6].

B8: 92F6 (mouse monoclonal antibody) (antibody, V domains shown)
VH: QVQLEQSGAEVVKPGASVKVSCTASGFNIKDTYMHWVKQRPEQGLEWIGRIDPANGNTNYDPKFQGKATITADTSSNTGYLQLSSLTSEDTAVYYCSRWGYDWYFDVWGAGTSVTVSS
VL: DIVITQSTAIMSASPGEKVTITCSASSSVSYIHWFQQKPGTSPKLWIYTTANLASGVPARFSGSGSGTSYSLTISRMEAEDAATYYCQQRSNYPFTFGSGTKLEIK
Regarding B8, in experiment [1], the “HEK Blue EC50” value worked out at 0.264 µg/mL. Moreover, the binding result (in the experiment with mouse CD40-hFc; in experiment [2]) was “no binding” throughout. In addition, the 50% effective concentration (EC50) in experiment [3] turned out to be 0.0291 µg/mL; in experiment [4] it was 0.0365 µg/mL; in experiment [5] it was 0.0779 µg/mL; in experiment [6], 0.13 µg/mL.

As a reminder, the EC50 is the midpoint of the concentration-response curve.
